In article PMC9820295 one finds stoichiometry N and Kd data, which are given here for three substances.

pKd: −log10 of the molar value. A value given as a limit tells only on which side of the number the result lay.

A word on the stoichiometry N: it is the number of molecules, sites or subunits per partner or assembly. The term pKd denotes −log10 of the Kd, conventionally taken in molar units.

In data set [1] the target is DgDps1 (Dgeo_0281) (Deinococcus geothermalis) (UniProt Q1J1Q0). Kind of data set: SEC; HiLoad 16/600 Superdex 75 prep grade; 25 mM Tris-HCl pH 7.5, 150 mM NaCl; size markers ferritin 440 kDa, conalbumin 75 kDa, ovalbumin 43 kDa, anhydrase 29 kDa; also run with 1 mM Fe2+ or Fe3+. For orientation: In gel filtration, larger molecules generally elute earlier.
Data set [2] concerns DgDps1 (Dgeo_0281) (Deinococcus geothermalis). As to the kind of experiment: EMSA. Conditions: EMSA 1x (from 5x stock): 20 mM HEPES pH 7.2, 32 mM KCl, 0.1 mM EDTA, 10% glycerol, 70 ng/uL BSA, 8 ng/uL poly(dI-dC), 2.5 mM DTT; 37 C 30 min; 6% native PAGE ….
Data set [3] has as its system Dgeo_0257 (putative Dps, DgDps3) (Deinococcus geothermalis). As to the kind of experiment: EMSA. The settings on record: no added metal; half-maximal shift, fragment not specified; EMSA 1x (from 5x stock): 20 mM HEPES pH 7.2, 32 mM KCl, 0.1 mM EDTA, 10% glycerol, 70 ng/uL BSA, 8 ng/uL poly(dI-dC), 2.5 mM DTT; 37 C 30 min; 6% native PAGE …. In general terms: In EMSA bound probe runs differently from free probe, usually more slowly.

“DgDps1 (Dgeo_0281) (from UniProt Q1J1Q0 1-222) (natural protein)”: in data set [1], the stoichiometry N stood at 2. Regarding Dgeo_2112 ORF region, the negative logarithm of the Kd (pKd) in data set [2] was under 4.40; in data set [3], over 5.40. In the case of Dgeo_2112 promoter region, the negative logarithm of the Kd (pKd) in data set [2] is under 4.40; in data set [3] it was over 5.40.
